{
  "source": "patent US20250026813A1",
  "about": "(published 2025)",
  "binders": {"B1": {"name": "YANG-1106 (antibody, V domains shown)", "VH": "EVQLVESGGGLIQPGGSLRLSCAASEFIVSRNYMSWVRQAPGKGLEWVSVIYSGGSTFYADSVRGRFTISRDNSKNTLYLQMNSLRAEDTAVYYCARDYGDQYFDYWGQGTLVTVSS", "VL": "EMVMTQSPATLSVSPGEKATLSCRASQTVSTNLAWYQQKPGQSPRLLIYGASTRATGIPARFSGSGSGTEFTLTISSLQSEDFAIYYCQQYVDWPRTFGQGTTVEIK"}, "B2": {"name": "YANG-1102 (antibody, V domains shown)", "VH": "QVQLQESGPGLVKPSGTLSLTCAVSGGSISTTNWWSWVRQSPGRGLEWIGEIFHIGYTNYNPSLKSRVTISVDKSKNQFSLKLNSVTVADTAVYYCARRVVMDTAMAHFDCWGQGTLVTVSS", "VL": "QSVLTQPPSVSGAPGQRVTISCTGSSSNIGAGYDVHWYQHLPGTAPKLLIYININRPSGVPDRFSGSKSGTSASLVIAGLQAEDGADYYCQSYDSSLSGWVFGGGTRLTVL"}, "B3": {"name": "YANG-1101 (antibody, V domains shown)", "VH": "QLQLQESGPGLVKPSETLSLTCTVSGGSISSSSYYWGWIRQPPGKGLEWIGSIYYSGSIYYNPSLKSRVTISVDTSKNQFSLKLSSVTAADTAVYYCASWFGEFLKADAFDIWGQGTMVTVSS", "VL": "QSALTQPASVSGSPGQSITISCTGTSSDVGGYSYVSWYQQHPGKAPKLMIYDVSKRPSGVSNRFSGSKSGNTASLTISGLQAEDEADYYCCSYAGGSTFVVFGGGTKLTVL"}, "B4": {"name": "YANG-1112 (antibody, V domains shown)", "VH": "QITLKESGPTLVKPTQTLTLTCTFSGFSLSTGGVAVGWIRQPPGKALEWLAIIYWDDDKRYSPSLKSRLTITKDTSKNQVVLTMTNMDPVDTATYYCAHWGKDSFDIWGQGTMVTVSS", "VL": "SYELTQPPSVSVSPGQTARITCSGDALPRKYAYWYQQKSGQAPVLVIYEDNNRPSGIPERFSGSSSGTTATLTVSGAQVEDEADYYCYSTDTSGYVVFGGGTKLTVL"}, "B5": {"name": "YANG-1108 (antibody, V domains shown)", "VH": "QVQLVESGGGVVHPGRSLRLSCVVSGFTFSGYGMYWVRQAPGKGLEWVAVISKDGSDKYYADSVKGRFTISRDNSKNTLNLQMNSLRAEDTAVFYCAKERTFQGSGSYYNNYFYYGMDVWGQGTTVTVSS", "VL": "AIQLTQSPSSLSASVGDRVTITCRASQGISSALAWYQQKPGKAPNLLIYDASSLESGVPSRFSGSGFGTDFTLTINSLQPEDFASYYCQQFKSYPLTFGGGTKVEIK"}, "B6": {"name": "YANG-1103 (antibody, V domains shown)", "VH": "EVQMVESGGGLIQPGGSLRLSCAASGLTVSSNYMSWVRQAPGKGLEWVSVIYSGGSTFYADSVKDRFTISRDNSKNTLYLQMNSLRAEDTAVYYCARENWNYVFDCWGQGTLVTVSS", "VL": "DIQLTQSPSFLSASVGDRVTITCWASQGISSYLAWYQQKPGKAPKLLIYAASTLQSGVPSRFSGSGSGTEFTLTISSLQPEDFATYYCQQLNSHPIIFGQGTRLEIK"}, "B7": {"name": "YANG-1109 (antibody, V domains shown)", "VH": "EVQLVESGGGLIQPGGSLRLSCGVSGLTVSRNYMNWVRQAPGKGLEWVSVIYSGGSTFYADSVKGRFTISRDNSKNTLYLQMISLRAEDSGVYYCAREGFGMDVWGQGTTVTVSS", "VL": "B6 VL with S31N, A50S, S77N, E81A, F83I, Q90L, I96C, I97S, R103K"}, "B8": {"name": "YANG-1105 (antibody, V domains shown)", "VH": "B7 VH with L4V, G23A, V24A, L27I, I83N, E88D, S90T, F100Y", "VL": "B6 VL with A50S, S76N, I96C, I97S, R103K"}, "B9": {"name": "YANG-1107 (antibody, V domains shown)", "VH": "B6 VH with P14S, T28S, S49A, T57I", "VL": "B6 VL with S31T, N92S"}, "B10": {"name": "YANG-1111 (antibody, V domains shown)", "VH": "EVQLVESGGGLIQPGGSLRLSCAASGFTFSSYSINWVRQAPGKGLEWVSFISGSSTTIYYADSVKGRFTISRDSAKNSLYLQMNSLRDEDTAVYYCARGLRSSIAPRPDYFDSWGQGILVTVSS", "VL": "SYVLTQPPSVSVAPGKTARITCGGNNIGSKGVHWYQQKPGQAPVLVIYYDSDRPSGIPERFSGSNSGNTATLTISRVEAGDEADYSCQVWDSSSDHPVFGGGTKLTVQ"}, "B11": {"name": "YANG-1110 (antibody, V domains shown)", "VH": "QVQLAESGGGVVQPGRSLRLSCVVSGFTFSNYGMHWVRQAPGKGLEWVVFISNDGSNEDFVDSVKGRFTISRDNSKNTLYLQMNSLRAEDTAVYYCAKGGYFYGSGNYYYYYGMDVWGQGTTVTVSS", "VL": "QPVLTQSSSASASLGSSVKLTCTLSSVHSNHIIAWHQQQPGKAPRYLMKLEGSGRYSKGSGVPDRFSGSSSEADRYLTISNLQSEDEADYYCETWDNNTYVFGSGTKVTVL"}, "B12": {"name": "YANG-1202 (antibody, V domains shown)", "VH": "EMQLVESGGGLVQPGGSLRLSCAASGFTFSSFWMRWVRQAPGKGLEWVANIKQDGTEKYYVDSVKGRFTISRDNAKNSLYLQMNSLRAEDTAVYYCVRDRVGGDYYYYDMDVWGQGTTVTVSS", "VL": "DIQMTQSPSSLSASVGDRVTITCRASQDISNYLAWFQQKPGKAPKSLIYAASSLQSGVPSKFSGSGSGTDFTLTISGLQPEDSATYYCQQYNSYPRTFGQGTKVEIK"}, "B13": {"name": "YANG-1201 (antibody, V domains shown)", "VH": "QVQLQESGPGLVKPSGTLSLTCAVSGDSISNSKWWSWVRQPPGKGLEWIGEIFHSGSTNYNPSLKSRVTISVDKSQNQFSLKLNSVTAADTAVYYCARSASLYYYYGVDVWGQGTTVTVSS", "VL": "EIVLTQSPGTLSLSPGERATLSCRASQSVSNNYLAWYQQKPGQAPRLLIYGTSRRDTGIPDRFSGSGSGTDFTLTISRLEPEDFAVYYCEQYGSLPRTFGQGTKVEIK"}, "B14": {"name": "YANG-1119 (antibody, V domains shown)", "VH": "EVQLVESGGGLVKPGGSLRLSCAASGFTFSSYSMNWVRQAPGKGLEWVSSISTGSSYIFYADSVKGRFTISRDNAKNSLYLQMNSLRAEDTAVYYCAKTGDLPFFDYWGQGTLVTVSS", "VL": "QSALTQPASVSGSPGQSITISCTGTSSDVGRYNYVSWYQQHPGKAPKLMIYEVSNRPSGVSNRFSGSKSGNTASLTISGLQAEDEADYYCSSYTSSSTMVFGGGTKLTVL"}, "B15": {"name": "YANG-1117 (antibody, V domains shown)", "VH": "B14 VH with M34V, A97V", "VL": "B14 VL with S26R, S54T, S95N, S96N"}, "B16": {"name": "YANG-1113 (antibody, V domains shown)", "VH": "B14 VH with I70M, L113P", "VL": "B14 VL"}, "B17": {"name": "YANG-1118 (antibody, V domains shown)", "VH": "B14 VH with S33A, M34L, N77H, Y80S", "VL": "B14 VL with S91I"}, "B18": {"name": "YANG-1116 (antibody, V domains shown)", "VH": "B14 VH with A23E, T28N, S30R, S33A, M34L, Y80S", "VL": "B14 VL with S91I"}, "B19": {"name": "YANG-1114 (antibody, V domains shown)", "VH": "B14 VH with Q3H, G8V", "VL": "B14 VL"}, "B20": {"name": "YANG-1115 (antibody, V domains shown)", "VH": "B14 VH", "VL": "B14 VL with T108S"}, "B21": {"name": "YANG-2201 (antibody, V domains shown)", "VH": "QEQLVESGGGVVQPGMSLRLSCAASGFTFSNYGMHWVRQSPGKGLEWVTFISYDGNNEYYVDSVKGRFTISRDNSKNTLFLQMNSLRAEDAAVYYCAKDRALNLYYFDSWGPGTLVTVSS", "VL": "DIVMTQPPLSLPVTPGEPASISCRSSQSLLHNNAYNHLNWYLQKPGQSPQFLIYLGSNRASGVPDRFSGSGSGTDFTLKISRVEAEDVGVYYCMQSLQIPITFGQGTRLEIK"}, "B22": {"name": "YANG-2202 (antibody, V domains shown)", "VH": "EVQLVESGGGLVQPGGSLRLSCAASGFTFSSFAMSWVRQAPGKGLEWVAAFSGRGAITHYTDSVKGRFTISRDNSKNTLYLQMNSLRAEDTAVYYCATYNWNPYYFDFWGQGTLVTVSS", "VL": "DIQMTQSPSSVSASIGDRVTITCRASQDINIWLAWYQQKPGKAPNLLIFDTSNLQSGVPSRFSGSGSGSDFTLTISSLQPEDFATYYCQQGNSFPRTFGQGTRLEIK"}, "B23": {"name": "YANG-2203 (antibody, V domains shown)", "VH": "QVQLVQSGAEVKQPGASVKVSCRASGYALTSFYVHWVRQAPGQGLEWMGIIKPSGGDTIYAQNLQGRVTMTRDTSTNTFYVELSSLRSEDTALYYCAISGNTRAFEIWGQGTMVTVSL", "VL": "QSVLTQPPSVSAAPGQKVTISCSGSSSNIGNNFVSWYQQLPGMVPKLLIYANNKRPSGIPDRFSGSRSGTSATLGITGLQTGDEADYYCGTWDSSRSAVLFGGGTKMTVL"}, "B24": {"name": "YANG-2204 (antibody, V domains shown)", "VH": "QMQLVQSGAEVKKPGASVKFSCKTSGYTFTNYYMVWVRQAPGQGLEWMGIIKPSGGNTIYAQKFQGRVTMTRDTSTNTVYMDLTSLRSEDTAVYYCARTGDRAFDVWGQGTMVTVSS", "VL": "B23 VL with F33Y, M43T, V44A, A51D, R67K, R96L, S97G, V99G, L100V, M107L"}},
  "note": "Residue numbers refer to the chain shown, from its start.",
  "data": [
    {"molecular_target": "SARS-CoV-2 spike protein bearing furin mutation and truncation in retention sequence, on pseudoviral particles (SARS-CoV-2, UniProt P0DTC2 14-1255)", "assay": "cell-based or functional assay", "units": {"PV neutralization % (Ab 1 ug/mL)": "%", "PV neutralisation IC50": "nM"}, "values": [
      {"binder": "B1", "PV neutralization % (Ab 1 ug/mL)": 99.5},
      {"binder": "B2", "PV neutralisation IC50": 0.84, "PV neutralization % (Ab 1 ug/mL)": 86.9},
      {"binder": "B3", "PV neutralization % (Ab 1 ug/mL)": 98},
      {"binder": "B4", "PV neutralisation IC50": 0.52, "PV neutralization % (Ab 1 ug/mL)": 89.2},
      {"binder": "B5", "PV neutralization % (Ab 1 ug/mL)": 95.2},
      {"binder": "B6", "PV neutralisation IC50": 0.28, "PV neutralization % (Ab 1 ug/mL)": 100},
      {"binder": "B7", "PV neutralisation IC50": 1.81, "PV neutralization % (Ab 1 ug/mL)": 99.4},
      {"binder": "B8", "PV neutralization % (Ab 1 ug/mL)": 97.2},
      {"binder": "B9", "PV neutralization % (Ab 1 ug/mL)": 99.2},
      {"binder": "B10", "PV neutralisation IC50": 1.82, "PV neutralization % (Ab 1 ug/mL)": 72.7},
      {"binder": "B11", "PV neutralization % (Ab 1 ug/mL)": 99.3},
      {"binder": "B12", "PV neutralization % (Ab 1 ug/mL)": 51.9},
      {"binder": "B13", "PV neutralization % (Ab 1 ug/mL)": 40.6},
      {"binder": "B14", "PV neutralisation IC50": 0.96, "PV neutralization % (Ab 1 ug/mL)": 99},
      {"binder": "B15", "PV neutralization % (Ab 1 ug/mL)": 97.8},
      {"binder": "B16", "PV neutralization % (Ab 1 ug/mL)": 97.6},
      {"binder": "B17", "PV neutralisation IC50": 0.25, "PV neutralization % (Ab 1 ug/mL)": 99.3},
      {"binder": "B18", "PV neutralization % (Ab 1 ug/mL)": 99.2},
      {"binder": "B19", "PV neutralization % (Ab 1 ug/mL)": 93.2},
      {"binder": "B20", "PV neutralization % (Ab 1 ug/mL)": 97.8}
    ]},
    {"molecular_target": "SARS-CoV-2 spike protein bearing furin mutation and truncation in retention sequence (on pseudoviral envelope) (SARS-CoV-2, UniProt P0DTC2 14-1273)", "assay": "cell-based or functional assay", "units": {"PV neutralization % (Ab 1 ug/mL)": "%", "PV neutralisation IC50": "nM"}, "values": [
      {"binder": "B21", "PV neutralization % (Ab 1 ug/mL)": 35.2},
      {"binder": "B22", "PV neutralization % (Ab 1 ug/mL)": 37.5},
      {"binder": "B23", "PV neutralisation IC50": 5.45, "PV neutralization % (Ab 1 ug/mL)": 35.7},
      {"binder": "B24", "PV neutralisation IC50": 3.3, "PV neutralization % (Ab 1 ug/mL)": 41}
    ]}
  ]
}
